Measurements from patent US20260028402A1 (SANYOU BIOPHARMACEUTICALS, published 2026).
Numbering of substitutions follows the chain as printed.

B1: A9-VHH2 (antibody, human IgG4 S228P, V domains shown)
VH: QVQLVESGGGLVQAGGSLRLSCAASGFSLDYYAIGWFRQAPGKEREEVSCISSSGGSTDYADSVKGRFTISRAYAKVYLQMNSLRAEDTAVYYCAAGVSGSVCPPLIGAYWGQGTLVTVSS
B2: A9-VHH1 (antibody, human IgG4 S228P, V domains shown)
VH: B1 VH with A14P, R85K, A86P
B3: A9 (antibody, human IgG4 S228P, V domains shown)
VH: B1 VH with R85K, A86P, L116Q
notes: also called antibody A9; antibody molecule A9
B4: A9-VHH3 (antibody, human IgG4 S228P, V domains shown)
VH: B1 VH with E44G, R45L
B5: A31 (antibody, human IgG4 S228P, V domains shown)
VH: EVQLVESGGGLVQPEGSLRLSCAASGFPLDYYAIGWFRQAPGKEREGVSCIISGGSTKYSASVKGRFTISRDSANNTVYLQMNSLKPEDTAVYFCAVSWSCDLFPRDTYGWDAWGQGTLVTVSS
notes: also called antibody A31; antibody molecule A31
B6: A31-VHH1 (antibody, human IgG4 S228P, V domains shown)
VH: B5 VH with N75K, K86R, P87A
notes: also called humanized antibody A31-VHH1
B7: A31-VHH (VHH)
VHH: B5 VH
notes: Tested as phage clone / VHH lysate in the screening; also called antibody A31-VHH
B8: Pepinemab (antibody, V domains shown)
VH: QVQLVQSGAEVKKPGSSVKVSCKASGYSFSDYYMHWVRQAPGQGLEWMGQINPTTGGASYNQKFKGKATITVDKSTSTAYMELSSLRSEDTAVYYCARYYYGRHFDVWGQGTTVTVSS
VL: DIVMTQSPDSLAVSLGERATINCKASQSVDYDGDSYMNWYQQKPGQPPKLLIYAASNLESGVPDRFSGSGSGTDFTLTISSLQAEDVAVYYCQQSNEDPYTFGQGTKLEIK
B9: MusCD100-Fc (Fc fusion, mouse, UniProt O09126 24-733, looked up)
chain: FAPVPRLTWEHGEVGLVQFHKPGIFNYSALLMSEDKDTLYVGAREAVFAVNALNISEKQHEVYWKVSEDKKSKCAEKGKSKQTECLNYIRVLQPLSSTSLYVCGTNAFQPTCDHLNLTSFKFLGKSEDGKGRCPFDPAHSYTSVMVGGELYSGTSYNFLGSEPIISRNSSHSPLRTEYAIPWLNEPSFVFADVIQKSPDGPEGEDDKVYFFFTEVSVEYEFVFKLMIPRVARVCKGDQGGLRTLQKKWTSFLKARLICSKPDSGLVFNILQDVFVLRAPGLKEPVFYAVFTPQLNNVGLSAVCAYTLATVEAVFSRGKYMQSATVEQSHTKWVRYNGPVPTPRPGACIDSEARAANYTSSLNLPDKTLQFVKDHPLMDDSVTPIDNRPKLIKKDVNYTQIVVDRTQALDGTFYDVMFISTDRGALHKAVILTKEVHVIEETQLFRDSEPVLTLLLSSKKGRKFVYAGSNSGVVQAPLAFCEKHGSCEDCVLARDPYCAWSPAIKACVTLHQEEASSRGWIQDMSGDTSSCLDKSKESFNQHFFKHGGTAELKCFQKSNLARVVWKFQNGELKAASPKYGFVGRKHLLIFNLSDGDSGVYQCLSEERVRNKTVSQLLAKHVLEVKMVPRTPPSPTSEDAQTEGSKITSKMPVASTQGSSPPTPALWATSPRAATLPPKSSSGTSCEPKMVINTVPQLHSEKTVYLKSSDNR
modifications: biotinylated in the Plexin binding and blocking assays (sites not given)
notes: range 24-733; Expressed in HEK293 cells; also called MusCD100-Fc-Biotin; MusCD100-Fc antigen protein; not shown: human Fc tag added to the C-terminus

molecular target: HuCD100-His (human, UniProt Q92854 22-734); assay: cell-based or functional assay

Binder	MDSC proportion (%) at 2.821 nM antibody [%]	MDSC proportion (%) at 8.463 nM antibody [%]	MDSC proportion (%) at 25.389 nM antibody [%]	MDSC proportion (%) at 76.166 nM antibody [%]	MDSC proportion (%) at 228.498 nM antibody [%]	MDSC proportion (%) at 685.495 nM antibody [%]
B1	31.2	17.8	13.1	10.5	9.09	10.9
B2	32.6	21.1	11	6.56	9.06	15.6
B3	34.2	23.2	10.2	5.12	7.08	11.1
B4	30.9	21.3	11.8	7.66	8.85	15
B5	16.8	8.97	9.56	10.4	10.7	14.7
B6	16.4	9.21	7.71	7.84	13.7	10

molecular target: T1, MusCD100-His (mouse, UniProt O09126 24-733); assay: primary ELISA screening of monoclonal clones
T1 construct: range 24-733; Expressed in HEK293 cells; also called MusCD100-His antigen protein; not shown: His tag added to the C-terminus

Binder	binding result
B7	binds

molecular target: T2, full-length human CD100 protein HuCD100 on cells (human, UniProt Q92854 22-862); assay: flow cytometry on HuPBMCs naturally expressing human CD100
T2 construct: whole, on cells; the cell is named under assay; also called HuCD100-HEK293; human CD100 on HuPBMC
Description: (§1) The specific procedures were as follows: HuPBMCs (AllCells, PB004F-C (Y1246)) and Jurkat cells (ATCC, TIB-152) in logarithmic growth phase were prepared as single-cell suspensions. The density was adjusted to 1×10⁶ cells/mL, and 100 μL of each suspension was added per well to 96-well plates. The plates were centrifuged at 4° C., 300 g and the supernatants were removed. […] After incubation, the cell mixture was washed three times, and then 100 μL of 1:300 diluted secondary antibody Goat F(ab′)₂ Anti-Human IgG-Fc (PE) (abcam, ab98596) was added, and the plates were incubated in the dark at 4° C. for 30 min. Following 3 additional washes, detection was performed using a flow cytometer (Beckman, CytoFLEX AOO-1-1102).

Binder	EC50 [nM]
B8	0.223
B3	0.191
B5	0.162

molecular target: T2, full-length human CD100 protein HuCD100 …; assay: flow cytometry on Jurkat cells naturally expressing human CD100
Description: as §1

Binder	EC50 [nM]
B8	0.559
B3	0.346
B5	0.302

molecular target: T3, full-length mouse Plexin-B1 protein MusPlexin-B1 on cells (mouse, UniProt Q8CJH3 20-2119); assay: flow cytometry on MusPlexin-B1-HEK293 cells with biotinylated antigen protein and streptavidin PE
T3 construct: whole, on cells; Overexpressed on HEK293 cells; also called MusPlexin-B1-HEK293
T3 sequence (Q8CJH3 20-2119): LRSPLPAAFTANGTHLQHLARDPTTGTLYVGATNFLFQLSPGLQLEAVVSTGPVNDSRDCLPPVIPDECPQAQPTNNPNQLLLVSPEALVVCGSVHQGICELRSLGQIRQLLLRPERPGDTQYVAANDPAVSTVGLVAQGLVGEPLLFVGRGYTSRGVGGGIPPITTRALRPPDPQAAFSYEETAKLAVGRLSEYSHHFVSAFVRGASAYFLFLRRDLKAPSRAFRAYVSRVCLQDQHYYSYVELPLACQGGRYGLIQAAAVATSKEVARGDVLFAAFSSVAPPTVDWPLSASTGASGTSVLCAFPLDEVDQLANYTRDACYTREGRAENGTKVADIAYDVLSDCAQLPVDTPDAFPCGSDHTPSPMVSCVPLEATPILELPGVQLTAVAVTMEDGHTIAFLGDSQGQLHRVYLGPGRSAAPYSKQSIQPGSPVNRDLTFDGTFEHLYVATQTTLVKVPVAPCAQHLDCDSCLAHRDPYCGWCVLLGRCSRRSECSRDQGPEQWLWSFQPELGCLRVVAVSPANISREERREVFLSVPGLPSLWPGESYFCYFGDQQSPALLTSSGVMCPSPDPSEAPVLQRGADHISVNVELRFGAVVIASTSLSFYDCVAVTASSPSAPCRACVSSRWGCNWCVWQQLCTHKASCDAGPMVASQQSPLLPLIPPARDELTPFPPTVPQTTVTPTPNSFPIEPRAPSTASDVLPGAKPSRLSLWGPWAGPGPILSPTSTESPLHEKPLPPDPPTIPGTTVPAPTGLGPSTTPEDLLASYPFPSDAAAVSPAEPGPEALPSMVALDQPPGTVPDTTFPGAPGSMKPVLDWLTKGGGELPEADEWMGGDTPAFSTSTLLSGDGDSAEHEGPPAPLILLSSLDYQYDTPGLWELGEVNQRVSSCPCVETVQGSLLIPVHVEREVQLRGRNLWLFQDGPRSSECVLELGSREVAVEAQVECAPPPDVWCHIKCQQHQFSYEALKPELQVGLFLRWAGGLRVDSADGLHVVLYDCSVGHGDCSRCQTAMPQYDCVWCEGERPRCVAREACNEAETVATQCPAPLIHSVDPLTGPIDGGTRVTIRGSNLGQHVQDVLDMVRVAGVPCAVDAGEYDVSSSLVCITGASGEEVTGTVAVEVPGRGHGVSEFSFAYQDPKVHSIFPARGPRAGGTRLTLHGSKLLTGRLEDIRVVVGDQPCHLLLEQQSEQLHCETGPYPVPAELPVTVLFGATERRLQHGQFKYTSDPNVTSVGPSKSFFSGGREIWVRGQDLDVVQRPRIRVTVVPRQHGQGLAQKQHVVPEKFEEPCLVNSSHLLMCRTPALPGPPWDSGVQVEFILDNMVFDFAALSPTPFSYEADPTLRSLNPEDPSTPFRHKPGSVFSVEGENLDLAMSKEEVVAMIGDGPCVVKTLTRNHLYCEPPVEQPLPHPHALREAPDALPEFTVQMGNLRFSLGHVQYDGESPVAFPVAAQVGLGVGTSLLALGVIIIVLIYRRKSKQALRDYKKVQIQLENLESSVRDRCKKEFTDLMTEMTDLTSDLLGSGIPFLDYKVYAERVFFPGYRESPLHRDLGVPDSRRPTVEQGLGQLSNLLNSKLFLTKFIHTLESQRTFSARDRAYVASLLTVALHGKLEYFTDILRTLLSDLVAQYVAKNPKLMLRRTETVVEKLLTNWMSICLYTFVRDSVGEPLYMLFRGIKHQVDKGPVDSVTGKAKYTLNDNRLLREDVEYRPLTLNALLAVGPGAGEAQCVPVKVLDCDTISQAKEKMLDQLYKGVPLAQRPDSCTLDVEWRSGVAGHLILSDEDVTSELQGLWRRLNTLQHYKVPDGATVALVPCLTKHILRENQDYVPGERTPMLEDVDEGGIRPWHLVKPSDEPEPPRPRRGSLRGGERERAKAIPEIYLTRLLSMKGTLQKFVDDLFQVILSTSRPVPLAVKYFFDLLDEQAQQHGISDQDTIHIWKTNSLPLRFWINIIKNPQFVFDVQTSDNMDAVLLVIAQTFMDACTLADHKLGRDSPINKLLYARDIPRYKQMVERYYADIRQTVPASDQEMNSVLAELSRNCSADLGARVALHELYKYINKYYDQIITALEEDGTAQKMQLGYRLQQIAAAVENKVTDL
Description: Flow cytometry identification of HuPlexin-B1-HEK293, MusPlexin-B1-HEK293, CynoPlexin-B1-HEK293, and HuPlexin-B2-HEK293 cells: cells of the above cell lines in the logarithmic growth phase were trypsinized and plated into 96-well plates. […] After washing, the prepared eBioscience Streptavidin PE (Invitrogen, 2265658, 1:300) was added and the plates were incubated at 4° C. for 30 min. Finally, detection was performed using a flow cytometer (Beckman, CytoFLEXAOO-1-1102).

Binder	binding result
B9	binds

molecular target: T1, MusCD100-His; assay: ELISA, antigen coated on plate

Binder	binding result
B6	binds

molecular target: T4, full-length mouse CD100 protein MusCD100 on cells (mouse, UniProt O09126 24-861); assay: flow cytometry on MusCD100-HEK293 cells
T4 construct: whole, on cells; Overexpressed on HEK293 cells; also called MusCD100-HEK293

Binder	binding result
B5	binds
B6	binds
